According to paper PMC10200341 (Bioconjugate chemistry, 2022):
No end group written: not given here. FAM = fluorescein

Molecular target: Nb6E (alpaca)
Assay: in-gel fluorescence of the crosslinked product

B1: FAM-1(NO2) (peptide)
chain: {FAM}-QADQCAAELARQIS
modifications: not fully specified (residue 5)
- Kd: 206 nM
